Test [1] addresses human sodium-dependent phosphate transporter 2B (NaPi2b) (human) (UniProt O95436). As to the kind of experiment: flow cytometry competition, HEK293-6e cells expressing human NaPi2b; row antibody unlabeled at 100 ug/mL (the reference of the calculation); competitor: AF647-labeled v23855 at 1 ug/mL.
For test [2] the target is unchanged. As to the kind of experiment: flow cytometry competition, HEK293-6e cells expressing human NaPi2b; row antibody unlabeled at 100 ug/mL (the reference of the calculation); competitor: AF647-labeled v18992 (MX35) at 1 ug/mL.
The target is the same in test [3]. In words: flow cytometry competition, HEK293-6e cells expressing human NaPi2b; row antibody unlabeled at 100 ug/mL (the reference of the calculation); competitor: AF647-labeled v18993 (lifastuzumab) at 1 ug/mL.
The target is the same in test [4]. As to the kind of experiment: flow cytometry competition, HEK293-6e cells expressing human NaPi2b; row antibody unlabeled at 100 ug/mL (the reference of the calculation); competitor: AF647-labeled v16955 (negative control) at 1 ug/mL.
Test [5] deals with Fcγ receptor (FcγR) on the surface of immune effector cells. As to the kind of experiment: cell-based or functional assay.

Sequence of human sodium-dependent phosphate transporter 2B (NaPi2b) (human) (O95436 whole entry): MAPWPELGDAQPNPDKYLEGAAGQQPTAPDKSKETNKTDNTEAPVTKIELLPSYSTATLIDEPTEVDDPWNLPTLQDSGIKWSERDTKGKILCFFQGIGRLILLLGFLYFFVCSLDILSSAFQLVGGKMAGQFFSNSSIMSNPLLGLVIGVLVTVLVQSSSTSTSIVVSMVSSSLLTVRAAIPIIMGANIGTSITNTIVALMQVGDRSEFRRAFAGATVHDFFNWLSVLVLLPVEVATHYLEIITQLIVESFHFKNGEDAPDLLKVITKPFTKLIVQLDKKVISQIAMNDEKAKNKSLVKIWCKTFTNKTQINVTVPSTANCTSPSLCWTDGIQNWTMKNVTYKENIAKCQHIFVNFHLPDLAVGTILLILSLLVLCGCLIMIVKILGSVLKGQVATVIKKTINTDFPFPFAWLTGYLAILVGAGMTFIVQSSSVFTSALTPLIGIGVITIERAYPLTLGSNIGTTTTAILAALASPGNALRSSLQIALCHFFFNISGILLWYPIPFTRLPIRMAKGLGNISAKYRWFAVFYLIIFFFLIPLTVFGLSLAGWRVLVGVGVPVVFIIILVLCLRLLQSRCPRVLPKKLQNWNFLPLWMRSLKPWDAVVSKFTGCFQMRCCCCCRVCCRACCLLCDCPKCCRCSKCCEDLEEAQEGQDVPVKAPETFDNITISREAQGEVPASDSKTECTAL

Turning to “v16955 (Palivizumab), anti-RSV negative control antibody”, the % Inhibition vs. irrelevant mAb in test [1], in test [2], in test [3] and in test [4] was 0% throughout.

In test [5], v18993 (lifastuzumab) (antibody) had a % ADCC at 0.0192 nM (25 PBMCs:1 IGROV-1) of 5.96%, a % ADCC at 0.48 nM (25 PBMCs:1 IGROV-1) of 14% and a % ADCC at 12 nM (25 PBMCs:1 IGROV-1) of 14.4%.

(Values after US20250235548A1, “ANTIBODY-DRUG CONJUGATES TARGETING NAPI2B AND METHODS OF USE” (Zymeworks BC Inc., priority 2022, published 2025).)
